Residue numbers refer to the chain shown, from its start. Names and notes keep the numbering of the source. Values belong to the molecule of their own block, whether it stands above or below them.
T1: RppHt;DapFm (Escherichia coli;Escherichia coli, UniProt P0A776;P0A6K1 1-158;1-274, |R36A;Y268A)
T1 sequence 1: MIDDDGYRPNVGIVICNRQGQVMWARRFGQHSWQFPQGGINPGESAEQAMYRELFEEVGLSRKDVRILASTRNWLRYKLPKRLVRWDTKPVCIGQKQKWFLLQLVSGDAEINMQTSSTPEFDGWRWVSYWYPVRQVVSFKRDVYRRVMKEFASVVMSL
T1 sequence 2: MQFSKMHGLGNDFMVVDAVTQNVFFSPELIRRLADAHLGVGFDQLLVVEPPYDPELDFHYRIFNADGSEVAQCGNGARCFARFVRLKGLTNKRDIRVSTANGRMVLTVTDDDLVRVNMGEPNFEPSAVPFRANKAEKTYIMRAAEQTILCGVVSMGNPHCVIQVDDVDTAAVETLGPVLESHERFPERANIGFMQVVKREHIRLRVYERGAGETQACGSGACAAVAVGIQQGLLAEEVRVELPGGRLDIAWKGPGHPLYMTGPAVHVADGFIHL

T2: RppH^R134A (E. coli RppH mutant), His6-SUMO-tagged (E. coli, UniProt P0A776 1-176, R134A)
T2 sequence (looked up): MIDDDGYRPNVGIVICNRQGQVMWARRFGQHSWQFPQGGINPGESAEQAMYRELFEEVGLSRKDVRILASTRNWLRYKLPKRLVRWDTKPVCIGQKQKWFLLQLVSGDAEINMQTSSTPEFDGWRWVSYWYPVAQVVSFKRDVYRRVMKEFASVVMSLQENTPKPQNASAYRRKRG

T3: His6-SUMO-tagged E. coli RppH (E. coli, UniProt P0A776 1-176)
T3 sequence (looked up): T2 sequence (looked up) with A134R

T4: His6-SUMO-DapF (E. coli DapF with uncleaved N-terminal hexahistidine and SUMO tags) (E. coli, UniProt P0A6K1 1-274)
T4 sequence: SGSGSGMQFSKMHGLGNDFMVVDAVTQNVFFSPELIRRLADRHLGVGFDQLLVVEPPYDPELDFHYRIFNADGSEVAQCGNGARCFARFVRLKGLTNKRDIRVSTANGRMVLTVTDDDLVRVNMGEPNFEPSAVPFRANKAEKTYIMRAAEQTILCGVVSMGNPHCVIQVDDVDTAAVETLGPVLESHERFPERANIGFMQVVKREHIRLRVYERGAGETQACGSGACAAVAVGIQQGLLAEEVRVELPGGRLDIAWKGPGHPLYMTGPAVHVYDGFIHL

T5: DapFm (E. coli DapF with Y268A and R36A mutations) (E. coli, UniProt P0A6K1 1-274, Y268A | R36A)
T5 sequence: T4 sequence with R42A, Y274A

B1: ppcpAGU (ssRNA)
RNA: AGU
modifications: 5' triphosphate analog ppcpA (non-natural bridging group, from ppcpA starter nucleotide)
B2: DapFm (E. coli DapF with Y268A and R36A mutations) (enzyme)
chain: T4 sequence with R42A, Y274A
B3: E. coli DapF (diaminopimelate epimerase) bearing six additional residues (SGSGSG) at the amino terminus (enzyme)
chain: T4 sequence
B4: DapF V19S-F58S (E. coli DapF double mutant) (enzyme)
chain: T4 sequence with V25S, F64S
B5: DapF V19S-L89S (E. coli DapF double mutant) (enzyme)
chain: T4 sequence with V25S, L95S
B6: DapF^V19S,F58S,L89S (E. coli DapF triple mutant) (enzyme)
chain: T4 sequence with V25S, F64S, L95S
B7: DapF F58S-L89S (E. coli DapF double mutant) (enzyme)
chain: T4 sequence with F64S, L95S
B8: Full-length E. coli RppH (RNA pyrophosphohydrolase) (enzyme, UniProt P0A776 1-176, looked up)
chain: T2 sequence (looked up) with A134R

How the values were obtained:
[1] = target: His6-SUMO-DapF (E. coli DapF with uncleaved N-terminal hexahistidine and SUMO tags) (E. coli) (UniProt P0A6K1); experiment: BLI
RppHt;DapFm = target: T1, RppHt;DapFm; experiment: X-ray crystallography
[2] = target: EcRppH(1–158)AA, truncated variant of E. coli RppH (E. coli) (UniProt P0A776); experiment: BLI
[3] = target: T2, RppH^R134A (E. coli RppH mutant), …; experiment: BLI
[4] = target: B8; experiment: BLI
[5] = target: T3, His6-SUMO-tagged E. coli RppH; experiment: BLI
[6] = target: T4, His6-SUMO-DapF (E. coli DapF with …); experiment: cross-linking
[7] = target: T5, DapFm (E. coli DapF with Y268A and R36A …)
[8] = target: T5, DapFm (E. coli DapF with Y268A and R36A …); experiment: BLI

Kd [1]: 1900 nM
Molecule: RppH^W130A,R145A (E. coli RppH double mutant) (from UniProt P0A776 1-176) (enzyme)

Molecule: B1
binding result (RppHt;DapFm): binds

Molecule: B2
Kd [2]: 6 nM

Molecule: B3
fold reduction of the binding affinity against wild-type RppH [3]: 2 fold

Molecule: B4
fold reduction of the binding affinity against wild-type DapF [4]: 59 fold

Molecule: B5
fold reduction of the binding affinity against wild-type DapF [4]: 77 fold

Molecule: B6
fold decrease of binding against wild-type DapF [5]: ~5800 fold

Molecule: B7
fold reduction of the binding affinity against wild-type DapF [4]: 290 fold

Molecule: B8
stoichiometry N [6]: 1 RppH per DapF (printed as 2:2) | stoichiometry N [7]: 1 RppH per DapFm (printed as 1:1) | Kd [8]: 7.5 nM
